From patent publication US11898183B2, “Programmed microorganisms to attenuate a disease” (priority 2020, dated 2024)

Test system: pathway specific substrates
Assay: Enzyme functionality of pathway enzyme homologs and fusion constructs in lysed E. coli cell extracts, product by HPLC
Type: biochemical, E. coli BL21
Conditions: substrate tested: Bursehernin; recombinant E. coli BL21 clone, lysed cell extract
In short: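 Enzymes and fusion constructs were expressed in E. coli BL21 (pET28, T7 promoter) with 0.1 mM IPTG at 30 °C for ~20 h in M9 medium. Cleared freeze-thaw lysates were incubated with pathway-specific substrates. Products were quantified by HPLC relative to empty-plasmid lysates.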

B1: CYP71 (SEQ ID NO: 32) Cinnamomum micranthum (protein)
chain: MALLLSLLFFASALIFLLKLNGQRANKTDVPPSPPKLPLIGNLHQLGTLPHRSLRSLAGKYGPLMLLYLGRIPTLIVSSEEMAEQIMKTHDLIFASRPSITAAKELLYGCTDLAFASYGEYWRQVRKMCVLELLSIKRVNSFRSIMEEEVGLMIERISQSSSTGAAVNLAELFLSLTGGTIARAALGKKYEGEAEEGRNKYADLVKELHALLGAFSVGDYFPSLAWVDVVTGLHGKLKRNSRELDRFLDQVIEHHLMRPLDGCDVGEHTDLVDVMLQVQKDSNRDIHLTRDNIKAIILDMFSAGTDTTALTLEWVMAELAKHPNVMKKAQGEVRRVVDVKANISEEHLCQLNYMKSIIKETLRLHPPAPLLVPRESTTNVKIQNFHIPPKTRVFINAYAIGRDPTSWENPEEFLPERFANNSVDFKGQDFQFIPFGAGRRGCPGLSFAITSLELALANLLYWFDWELPQGVTEEDLDMSEALGITVHKKLPLYLVPKNHFS
modifications: Depicts the amino sequence of CYP71 of Cinnamomum micranthum
Enzyme activity in terms of product formation (in %): 94%
